# According to the nanobody polyreactivity screen of Harvey et al. (2022):
# Assay: yeast display, Sf9 membrane polyspecificity reagent, FACS + sequencing; frameworks hold sequencing errors
# Summary of the method: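 In a synthetic yeast display library (Saccharomyces cerevisiae BJ5465), nanobody expression was induced with galactose for 36–48 hours. FACS gates were set low and high (top ~1%) using anti-HA fluorescence for expression and streptavidin fluorescence for binding of the Sf9 membrane reagent. Each polyreactivity label is drawn from the gate of origin.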
row,Sequence,polyreactivity (PSR sort gate)
1,QVQLVESGGGLVQAGRSLRLSCAASGSIFYKYARGWYRQAPGKERELVAAISRSRGSTYYADSVKGRFTISRDNAKNTVYLQMNSLKPEDTAVYYCNAYYRYSFSELDKYGYWGQGTQVTVSS,high polyreactivity
2,QVQLVESGGGLVQAGGSLRLSCAASGSTFYVNTMGWYRQAPGKERELVAAINWRGGSTYYADSVKWRFTISRDNAKNTVYLQMNSLKPEDTAVYYCAAYGFYRYVTAYIYDMDYWGQGTQVSVSS,low polyreactivity
3,QVQLVESGGGLVQAGGSLRLSCAASGSIFLGYAMGWYRQAPGKERELVATITSSGSTSYADSVKGRFTISRDNAKNTVYLQMKSLKPEDTAVYFCNTDLFQYGVNHYEYWGQGTQVTVSS,high polyreactivity
4,QVQLEESVGGLVQEGGSLRLTCAASGRIFGNTMGWYRQAPWKEMELVAAITRSGVSTYYADSVKGRFTSSRDNAKNTVYLQMNSLKPEDTAVYYCADASSYYRGHYDYWGQGTQVTVSS,high polyreactivity
5,QVQLVESGGGLVQAGGSLRLSCADSGRIITVYDMGWYRQAPGKEREYVAAISDTDSSTYADSVKGRFTISRDNAKNTVYLQMNSLKPEDTAVYYCNAVGDIFGRVSTEYEYWGQGTQVTVSA,low polyreactivity
6,QVQLVESGGGLVQAGGSLRVSCAASGFSFKYYAMGWYRQAPGKERELVAAITKRGGSTYYADSVKGRFTISRDNAKNTVYLQLNSLIPEDTAVYYCAADGRAYERYDYRSDYWGQGSQVTVSS,high polyreactivity
7,QVQLVESGGGLVQAGGSLRLSCAASGSIFTINTMGWYRQAPGKERELVAAITGSGGITYYADSVKGRFTISRDNAKNTVYLQMNSLKPEDTAVYYCAADTGYVHDGYWGQGTQVTVSS,low polyreactivity
8,QVQLVESGGGLVQAGGSLRLSCAASGSTIFLYDMGWYRQAPGKERELVAAITISGGSTYYADSVKGRFTISRDNAKNTVYLQMNSLKPEDTAVYDCNADYQWYLGGYDYWGQGTQVTVSS,high polyreactivity
9,QVQLVESVGGLVQAGASLRLSCAASGLNIYTYAMGWYRQAPGKERELVAAIRWRGGRTYYADSVNGRFTISRDNAKNTVYLQMNSLKPEDTAVYYCAADYSNLYKSDYWGQGTQVTLSS,low polyreactivity
10,QVQLVESGGGLVQAGGSLRLSCAASGFIITTYAMGWYRQAPGKERELVAGISSSGGRTYADSVKGRFTISRDNAKNTVYLQMNSLKPEDTAVYYCAREQWRTLVQTDKYKYDYWGQGTQVTVSS,high polyreactivity
11,QVQLVESGGGLVQAGGSLRLSCAASGRIFYRYGMGWYRQAPGKERELVASITRGGSTYYADSVKGRFTISRDNAKNTVYLQMNSLKPEDTAVYYCATKSSAGYDYWGQGTQVTVSS,low polyreactivity
12,QVQLVEYGGGLVQAGGSLRLSCADSGRIFDVYAMGWYRQAPGKERELVARISDGGGSTYYADSVKGRFTISRDNAKNTVYLKMNSLKPEDTAVYYCAAGGDLRLDRRFAFVSRGDYWGQGTQVTVSS,low polyreactivity
13,QVQLVDSAGGLVQAGGSLSLSCAASGFIFGRYAMGWYRQAPGKERELVAVITWSGGRTYYADSVKGRFTISRDNAKNTVYLQMNSLKPEDTAVYYCAADRYPYHYGYDYWGQGTQVTVSS,high polyreactivity
14,QVQLVESGAGLVQAGGSLRLTCAASGSTFNRYVMGWYRQAPGKERDFVATISQGGGSTYYADSVKGRFTISRDNAKNTVYLHMNSLKPDVTAVYYCAAVSTRQYRYPHEYWGQGTQVTVSS,high polyreactivity
15,QVQHVETRGGLVQAGGSLRLSCAASGFIFIRYAMGWDRQAPGKERELVAGITSSGGSTYYADSVKGRFTISRDNAKNSVYLQMNSLKPEDTEVYFCNADSWLYRFYGYDYWGQGTQVTVSS,low polyreactivity
16,QFQLVESGGGLVQAGASLRLSCASSLSTFDHNAMGSYRQAPGKESELVAAISSSGGRTYYADSVKGRFTISRDNAKNTVYLQMNSLKPEDTAVYYCAAVVRRAPEFDYSGQGTQVTVSS,high polyreactivity
17,QVQLVESGGGLVQAGGSLRLSCAASGITFDANTMGWYRQAPGKERELVAVITDTGSTNYADSVKGRFTISRDNAKNTVYLQMNSLKPEDTAVYYCNADAEPSSGTSANNDYWGQGTQVTVSS,low polyreactivity
18,QVQLVESGGGLVQTGGSLRLSCAASGSTFNQYDMGWYRQAPGKERELVAAINRDGSTYYADSVKGRFTISRDNAKNTVYLQMNSLNPEDTAVYYWNAVGWYTYFYGSRKYNSWGQGTEVTVSS,low polyreactivity
19,QVQLVESGGGLVQAGGSLRLSCAASGFIFYRNPMGWYRQAPGKEREFVAAIRGRGGATYYADSVKGRFTISRDNAKITVYLQMNSLKREDTAVYYCAADTRPGYSGFEYWGQGTQVTVSS,high polyreactivity
20,QVQLVESGGGLVQAGGSLRLSCAPSGSIFFPYAIGWYRQAPGKESELVAAISYSGTSTYYADSVKGRFTISRDNAKNTVYLQMNSLIPEDTAVYYCAAEVIGRYIEYYYWGQGTQVTVSS,high polyreactivity
21,QVQLVESGGGLVQAGGSLRLSCAASGRTFPYYTMGWYRQAPGKERELVAAINSSGGRTYYADSVKGRFTISRDNAKNTVYLQMNSLKPEDTAAYYCAKRGYYKYDWGQGTQVTVSS,high polyreactivity
22,QVQLVESGGGLVQAGGSLRLSCAASGSTFYGNAMGWYRQATGKERELVAAIRWRGGRTYYADSVKGRFTISRDNAKNTVYLQMNSLKPEDTAVYYCNALPGVSHTQYDRVGYWGQGTQVTVSS,high polyreactivity

row,Sequence,polyreactivity (PSR sort gate)
1,QVQLVESGGGLVQAGGSLRLSCAASGRIFRIYAMGWYRQAPGKERELVARITYSGGSTYYADSVKGRFTISRDNAKNTVYLQMNSLKPEDTAVYYCNAYFIYEGGWYYKAQYDYWGQGTQVTVSS,low polyreactivity
2,QVQLVESGGGLVQAGGSLRLSCAASGSIFYTNAMGWYRQAPGKERELVAAITNGSSTNYADSVKGRFTISRDNAKNTVYLQMNSLNPEDTAVYYCAKYFGNYSIYDYWGQGTQVTVSS,low polyreactivity
3,QVQLVESGGGLVQAGGSLRLSCAASGFIFRFNALGWYRQAPGKERELVAAISGSGGITYYADSVKGRFTISRDNAKNTVYLQMNSLKPEDTAVYYCAAGTGKRSVRFDYWGQGTQVTVSS,high polyreactivity
4,QVQLVESGGGLVQAGGSLRLSCAASGSIFVYYAMGWYRQAPGKERELGAAISSTGGRTYYADSVKGRFTISRDNAKNTVYLQMNSLKPEDTAVYYCAKTPTVVEFDYWGQGTQVTVAS,low polyreactivity
5,QVQLVESGGGLVQAGGSLRLSCAASGIIFGRYAMGWYRQAPGKERELVATISRSGGTTYYADSVKGRFTISRDNAKNTVYLQMNSLKPEDTAVYYCAARWTSRYDYWGQGTQVTVSS,high polyreactivity
6,QVQIVESGGGLVQAAGSLRLSCAAYGRIFGVYAMGWYRQAPGKERELVSNITSGGSTSYADSVKGRFTISRDNAKNTVYLQMNSLKPEDTAVYYCNAPYSFFWQQMNYWGQGTQVTVSS,low polyreactivity
7,QDQLVESWGGLVQAGCSLRLTCAASGSTFWWYAMGWNRQAPGKQREFDAPINWSGSRTYYADSVKGRFTISRDNAKNTVYLQINSLNPEDTAVYYCAAVGRWGVTGSHHDAYDYWGQGTQVTVSS,high polyreactivity
8,QVQLVESGGGIVQAGGSLRLSSAASGRTFYVYTMGWYRQAPGKERELVAAITSGGSTNYADSVKGRFKISRDNAKNTVYLQMNSLKPEDTAVYYCAARFSTVFKRYYYWGQGTQLTVSS,high polyreactivity
9,QVQLVESGGGLVQAGGSLRLTCAASGRTLYRYAMGWYRQAPGKERELVAAITNGGSTKYADSVKGRFTISRDNAKNTVYLQMNSLKPEDTAVYYCYAVVNFILLRIYYGQLYNYWGQGTQVTVSS,low polyreactivity
10,QVHLVESGGGLVQAGGSLRLSCAASGFTFRTYAMGWYRQAPGKERELVAAITRNGGTYYADSVKGRFTISRDNAKNTVNLQMNSLKPEDTAVYYCATDPAYWGDQPPEDDYWGQGTQVTVSS,low polyreactivity
11,QVQLEESGGGLVQAGGSLRLSCAASGINLTGYTMGWYRKATGKERQLVAAITYGGTSTYYADSVKGRFTISRDNAKNTVYLQMNSLKPEDTAVYYCAALYRGPRYGYWGQGTQVTVSS,high polyreactivity
12,QVQLVESGGGLDQAGGSLRLSCAASGTIFTFYTMGWYRQAPGKERELVAAINWSGSRTYYADSVKGRFTISRDNAKNTVYLQMNSLKPEDTAVYYCAAEHWFPSAPWYYSDLHYYWGQGTQVTVSS,high polyreactivity
13,QVQLVESGGGLVQAGGSLRLSCAASGTIFGSNAMGWYRQAPGKERELVAAISWRGGRTYYADSVKGRFSISRDYAKNTVYLQMYSLKPVETAVYYCAKRWRRRFVDVWSLYDYWGQGTQVTVSS,low polyreactivity
14,QVQLVESGGGLVQAGGSLRLSCAASGFTLRAYAMGWYRQAPGKERELVAAISSGGSTYADSVKGRFTISRDNAKNTVYLQMNSLKPEDTAVYYCAADGSKLFYSKFRYVQYGYWGQGTQVTVSS,high polyreactivity
15,QVQLVESGGGLVQAGGSLRLSCAASGFTFRLYTMGWYRQAPGKERELVAGISTSGGSTYYADSVKGRFTISRDNAKNTVYLQMNSLKPEDTAVYYCAAQAFTSYDYWGQGTQVTVSS,high polyreactivity
16,QVQLVESGGGLVQAGGSLRLSCAASGIIFTYYAMGWYIQAPGKERELVAGITWSGTTTYYADSVKGRFTISRDNAKKTVYLQMNSLKPEDPAVYYCNALGYYEHDYWGQGTQVTVSS,low polyreactivity
17,QVPLVESGGGVVQAGGSLRLSCAASGSIFNVNAMGWYRPAPGKERELVAAISSGGDTYYADSLKGRFTISRDNAKNTVYLQMNSLKPEDTAVYYCAAEIYTAYYEFDYWGQGTQVTVSS,low polyreactivity
18,QVQLVESGGCLVQAGGSLRLSCPASGFTLPANGMGWYRQAPGKERELVAAISFIAGSTYYADSVKGRFTISRDNAKNTVYLQMNSLKPEDTEVYYCATQFPPSTIYDYWGQGSQVTVSS,low polyreactivity
19,QVQLVESGGGLVQAGGSLRISCAASGFTFRYYALGWYRQAPGKERELVAAILSSGGSTYYADSVKGRFTISRDNAKNTVYLQINSLKPVDTAVYYCNKVWDRRYDYWGQGTQVTVSS,high polyreactivity
20,QVQLVESGGGLVQAGGSLRLSCAASGTIFRRSAMGWDRQAPGKERELVATITSTDSTNYADSVKGRFTISRDNAKNTVYLQMNSLKPEDTAVYYCAKRPYHYRRNSEYYYWGQGTQVTVSS,low polyreactivity
21,QVQHVESGGGLVQAGGSLRLSCAASGGIFYYYAMGWYRPAPGKERELVATISNGGSTYYADSVKGRFTISRDNAKNTVYLQMNSLNPEDTAVYYCAARDGRQPRGYRLVTYYAPMYYWGQGTQVTVSS,high polyreactivity
